Article PMC5659314 (Journal of immunology (Baltimore, Md. : 1950), 2017)
Each block holds one molecule with its values, some of them ahead of it.

What was measured:
mouse DR3.Fc (mouse) = test: SPR
human TL1A = target: T1, human TL1A (human, UniProt O95150 72-251); test: ELISA
T1 sequence (looked up): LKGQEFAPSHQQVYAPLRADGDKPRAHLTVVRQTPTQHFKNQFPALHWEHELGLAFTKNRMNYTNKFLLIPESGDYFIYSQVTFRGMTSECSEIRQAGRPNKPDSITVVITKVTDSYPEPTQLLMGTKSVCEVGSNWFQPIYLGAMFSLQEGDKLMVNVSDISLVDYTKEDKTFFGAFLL

[1] = target: recombinant human Galectin-9 (human, UniProt O00182 1-355); test: SPR
[2] = target: recombinant mouse Galectin-9 (mouse, UniProt O08573 1-353); test: SPR
Sequence of recombinant mouse Galectin-9 (mouse, UniProt O08573 1-353) (O08573 whole entry): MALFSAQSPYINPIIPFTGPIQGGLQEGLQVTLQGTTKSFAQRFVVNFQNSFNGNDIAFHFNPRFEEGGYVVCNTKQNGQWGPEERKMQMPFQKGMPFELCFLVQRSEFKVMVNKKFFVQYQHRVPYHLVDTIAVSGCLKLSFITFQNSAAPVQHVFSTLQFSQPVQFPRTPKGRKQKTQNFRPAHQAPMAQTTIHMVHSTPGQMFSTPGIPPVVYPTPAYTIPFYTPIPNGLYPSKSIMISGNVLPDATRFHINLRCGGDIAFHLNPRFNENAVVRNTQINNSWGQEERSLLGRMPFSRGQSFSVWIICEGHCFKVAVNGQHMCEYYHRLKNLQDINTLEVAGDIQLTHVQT

Sequence of recombinant human Galectin-9 (human, UniProt O00182 1-355) (O00182 whole entry): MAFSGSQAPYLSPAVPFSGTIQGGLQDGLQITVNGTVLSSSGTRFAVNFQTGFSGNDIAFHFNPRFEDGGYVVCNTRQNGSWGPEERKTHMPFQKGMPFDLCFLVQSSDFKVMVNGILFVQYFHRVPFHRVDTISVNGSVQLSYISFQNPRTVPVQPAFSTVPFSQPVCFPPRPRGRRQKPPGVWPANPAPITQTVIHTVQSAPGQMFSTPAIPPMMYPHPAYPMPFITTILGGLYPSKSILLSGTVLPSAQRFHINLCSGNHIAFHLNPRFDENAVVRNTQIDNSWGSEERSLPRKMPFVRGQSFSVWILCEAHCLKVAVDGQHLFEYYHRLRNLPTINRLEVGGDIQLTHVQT

B1: human DR3.Fc (fusion protein containing the extracellular region of human DR3) (Fc fusion, UniProt Q93038 25-199, looked up)
chain: QGGTRSPRCDCAGDFHKKIGLFCCRGCPAGHYLKAPCTEPCGNSTCLVCPQDTFLAWENHHNSECARCQACDEQASQVALENCSAVADTRCGCKPGWFVECQVSQCVSSSPFYCQPCLDCGALHRHTRLLCSRRDTDCGTCLPGFYEHGDGCVSCPTSTLGSCPERCAAVCGWRQ
- binding result (human TL1A): binds
- Kd [1]: ~430 nM
- Kd [2]: ~440 nM

B2: de-glycosylated human DR3.Fc (PNGase F treated) (Fc fusion, UniProt Q93038 25-199, looked up)
chain: B1 chain
modifications: N-linked sugars removed by PNGase F
- binding result (human TL1A): binds

The next lines start with the values.

- Kd (mouse DR3.Fc (mouse)): 180 nM
Molecule: recombinant human Galectin-9 (from UniProt O00182 1-355) (natural protein)

- Kd (mouse DR3.Fc (mouse)): 360 nM
Molecule: recombinant mouse Galectin-9 (from UniProt O08573 1-353) (natural protein)
